# B1: CD36Apt (Mono.A2) (ssDNA)
# DNA: ATCCAGAGTGACGCAGCAGAAGAGTAGATGAAACGTTTTTTCGCCCGATAAAAGGGACGTGCGTCAGACATGGACACGGTGGCTTAGT
# Target: CD36 on human monocytes / monocyte membrane extract (Homo sapiens, UniProt P16671 1-472)
# Experiment: pull-down with mass spectrometry
# Sequence of CD36 on human monocytes / monocyte membrane extract (P16671 whole entry): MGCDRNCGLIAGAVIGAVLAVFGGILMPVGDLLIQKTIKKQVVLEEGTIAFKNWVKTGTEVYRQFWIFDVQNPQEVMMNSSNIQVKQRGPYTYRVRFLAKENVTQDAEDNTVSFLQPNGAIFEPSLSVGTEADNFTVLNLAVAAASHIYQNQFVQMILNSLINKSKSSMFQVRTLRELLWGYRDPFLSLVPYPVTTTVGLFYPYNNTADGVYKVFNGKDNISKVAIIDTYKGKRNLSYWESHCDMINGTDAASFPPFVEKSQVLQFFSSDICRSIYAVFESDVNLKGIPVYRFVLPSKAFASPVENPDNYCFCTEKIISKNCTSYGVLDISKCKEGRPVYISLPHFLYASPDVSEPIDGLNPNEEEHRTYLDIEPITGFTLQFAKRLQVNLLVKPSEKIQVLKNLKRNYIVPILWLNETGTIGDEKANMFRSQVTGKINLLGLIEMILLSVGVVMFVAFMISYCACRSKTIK
binder,measurement,value
B1,binding result,binds
